The values that follow come from patent publication US20230212300A1 (REMD BIOTHERAPEUTICS, published 2023).

This experiment addresses T1, human endothelin A receptor (ETAR), tagged, stably expressed on recombinant CHO cells (human, UniProt P25101 21-427).
T1 sequence: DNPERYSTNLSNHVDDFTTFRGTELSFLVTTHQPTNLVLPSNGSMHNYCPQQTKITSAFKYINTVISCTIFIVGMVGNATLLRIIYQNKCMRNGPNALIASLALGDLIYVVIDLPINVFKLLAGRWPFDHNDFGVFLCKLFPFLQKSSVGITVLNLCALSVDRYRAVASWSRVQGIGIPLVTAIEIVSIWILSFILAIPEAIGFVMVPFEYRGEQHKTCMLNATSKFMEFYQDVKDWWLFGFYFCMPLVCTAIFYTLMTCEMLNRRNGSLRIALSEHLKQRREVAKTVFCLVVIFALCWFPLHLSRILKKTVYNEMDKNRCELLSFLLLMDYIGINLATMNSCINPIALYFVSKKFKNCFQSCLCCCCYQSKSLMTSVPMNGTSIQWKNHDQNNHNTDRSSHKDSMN
Nature of the experiment: cell-based or functional assay.

B1: murine mAb 312A10E5 (antibody, V domains shown)
VH: QIQLVQSGPDLKKPGETVKISCKASGYTFTNYGMSWVKQAPGKGLKWMGWINTYSGESTYADDFKGRFAFSLETSASTAYLQINNLKNEDTATYFCARSLNRDTWFTYWGQGTLVTVSA
VL: QAVVTQESALSTSPGETVTLTCRSITGAVTTSNYANWVQEKPDHLFTGLIGGTNNRAPGVPARFSGSLIGDKAALTITGAQTEDEAIYFCALWYSNHWVFGGGTKLTVL
As to B1, the “HuET AR Binding IC50 (nM); IP1 assay (IP-one-Gq kit, HTRF 665/620) with 25.0 nM ET-1” value was determined as 0.0891 nM.

B2: murine mAb 336D8G9 (antibody, V domains shown)
VH: EVQLQQSGAELVRPGASVKLSCPASGFTIKDYYIHWVKQRPEQGLEWIGRIDPEDGDTEYAPKFQGKATMTADTSSNTAYLHLSSLTSEDTAVYYCTSNWYSNSYWGQGTTLTVSS
VL: DVVMTQTPLSLPVSLGDQASISCRSSQSLVHSNGNTYLHWYLQKPGQSPKVLIYKVSNRFSGVPDRFSGSGSGTDFTLKISRVEAEDLGVYFCSQSTHVPYTFGGGTKLEIK
B2: the “HuET AR Binding IC50 (nM); IP1 assay (IP-one-Gq kit, HTRF 665/620) with 25.0 nM ET-1” value was 0.0607 nM.
